Experimental data published in paper PMC6131177.

Tests used:
[1] = molecular target: T1, Bacteriorhodopsin (Halobacterium salinarum S9), P02945; test: circular dichroism in the visible range; bR in native purple membrane (PM); 700-400 nm, 20 °C; a biphasic signal marks the trimer; conditions: remark: other sources report otherwise
T1 chain: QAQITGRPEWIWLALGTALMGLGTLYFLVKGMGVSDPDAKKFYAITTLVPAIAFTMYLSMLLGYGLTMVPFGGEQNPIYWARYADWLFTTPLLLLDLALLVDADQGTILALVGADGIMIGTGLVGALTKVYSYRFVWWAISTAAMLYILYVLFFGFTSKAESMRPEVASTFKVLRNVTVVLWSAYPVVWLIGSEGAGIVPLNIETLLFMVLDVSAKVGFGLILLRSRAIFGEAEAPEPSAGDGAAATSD

[2] = molecular target: T1, Bacteriorhodopsin (Halobacterium …); test: circular dichroism in the visible range; bR in PMND (cE3D1 nanodisc assembled directly from PM), SEC-purified early fractions 1 to 6; 700-400 nm, 20 °C; a biphasic signal marks the trimer; conditions: remark: other sources report otherwise

stoichiometry N [1]: 3
stoichiometry N [2]: 3
B1: Bacteriorhodopsin, P02945 14-262 (natural protein)
chain: QAQITGRPEWIWLALGTALMGLGTLYFLVKGMGVSDPDAKKFYAITTLVPAIAFTMYLSMLLGYGLTMVPFGGEQNPIYWARYADWLFTTPLLLLDLALLVDADQGTILALVGADGIMIGTGLVGALTKVYSYRFVWWAISTAAMLYILYVLFFGFTSKAESMRPEVASTFKVLRNVTVVLWSAYPVVWLIGSEGAGIVPLNIETLLFMVLDVSAKVGFGLILLRSRAIFGEAEAPEPSAGDGAAATSD
modifications: here or on the partner: retinal Schiff base (residue not given); retinal Schiff base (residue not given)
